Measured values: publication PMC7887190

Biological target: YB1 (UniProt P67809)
Assay: reciprocal co-IP (anti-YB1, anti-WAVE3), blot

binding against the reference (reference: wild-type WAVE3 (W3-WT), sites Y151,Y248,Y337,Y486)	binding against the reference (reference: PRD-WT (GFP fusion), sites Y248,Y337)	Substance
lost		WAVE3 (from UniProt Q9UPY6) W3-Y4F
	weaker	WAVE3 proline-rich domain (PRD) (from UniProt Q9UPY6) PRD-DM (Y248F/Y337F)
